From article PMC6981728, “The Mitochondrial Small Heat Shock Protein HSP22 from Pea is a Thermosoluble Chaperone Prone to Co-Precipitate with Unfolding Client Proteins” (International Journal of Molecular Sciences, 2019)
Several values for one entry are separate records, joined by “and”; a condition that tells them apart may be missing. Equal values may be shown once.

T1: rhodanese from bovine liver (bovine, UniProt P00586 1-297)
T1 construct: rhodanese (thiosulfate sulfurtransferase) from bovine liver; called a monomeric enzyme of 33 kDa; In the assays it is heat denatured (50 °C) and aggregating; source: bought: Merck KGaA (rhodanese from bovine liver II)
T1 sequence (looked up): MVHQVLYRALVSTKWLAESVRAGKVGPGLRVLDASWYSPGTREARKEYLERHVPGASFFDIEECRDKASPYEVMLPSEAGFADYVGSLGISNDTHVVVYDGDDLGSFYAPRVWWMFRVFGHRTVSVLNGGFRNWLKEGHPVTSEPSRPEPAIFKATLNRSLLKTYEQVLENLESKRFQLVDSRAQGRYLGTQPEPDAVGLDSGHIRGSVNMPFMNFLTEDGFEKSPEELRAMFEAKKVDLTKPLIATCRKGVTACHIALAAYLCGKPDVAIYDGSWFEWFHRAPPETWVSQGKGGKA


Assays:
[1] = biological target: T1, rhodanese from bovine liver; assay: co-sedimentation; heat aggregation assay with purified proteins: 8 to 25 µg of proteins in 50 µL MOPS 50 mM pH 7.5, DTT 1 mM, EDTA 1 mM, heated 20 min at 50 °C, 15 min on ice, centrifuged 30 min at 20,000 g; supernatants and pellets by SDS-PAGE; 1:1 mass ratio or molar ratios up to 9:1; settings: both partners purified
[2] = biological target: the molecule itself; assay: SEC; purified HSP22rec (100 µg) at 20 °C; Superdex 200 10/300GL, 0.25 mL/min, 20 mM Tris pH 7.4, 1 mM EDTA, 150 mM NaCl; masses from a calibration curve with standard proteins
[3] = biological target: the molecule itself; assay: SEC; pea seed mitochondrial soluble proteins (7 mg) separated at 20 °C; fractions analysed by Western blot with the anti-HSP22 Cterm antibody

Binder	binding result [1]	stoichiometry N [2]	stoichiometry N [3]
recombinant HSP22 (HSP22rec), mature mitochondrial small heat shock protein HSP22 from pea (natural protein, UniProt P46254 32-202, looked up, mature HSP22 of pea, amplified from a cDNA encoding the HSP22 precursor (UniProtKB P46254); 19.5 kDa and 170 residues stated; Cloned by NdeI/BamHI into pET3a, so an added initiator methionine is likely (surmise); No tag is mentioned; source: E. coli B834 pLys (pET3a, pET-HSP22), purified (anion exchange HitrapQ, two SEC steps on Superdex 200); also unpurified in soluble extract of the …) FNTNAMRQYDQHSDDRNVDVYRHSFPRTRRDDLLLSDVFDPFSPPRSLSQVLNMVDLLTDNPVLSAASRRGWDARETEDALFLRLDMPGLGKEDVKISVEQNTLTIKGEEGAKESEEKEKSGRRFSSRIDLPEKLYKIDVIKAEMKNGVLKVTVPKMKEEERNNVINVKVD	binds	20 mer and 12 mer and 8 mer	
native HSP22 of pea seed mitochondria (natural protein, UniProt P46254 32-202, looked up, mitochondrial small heat shock protein HSP22 of pea, native protein in the soluble (matrix) extract of mitochondria from 22 h imbibed pea seeds; Detected by Western blot with anti-HSP22 peptide antibodies; source: endogenous, soluble protein extract of pea seed mitochondria) FNTNAMRQYDQHSDDRNVDVYRHSFPRTRRDDLLLSDVFDPFSPPRSLSQVLNMVDLLTDNPVLSAASRRGWDARETEDALFLRLDMPGLGKEDVKISVEQNTLTIKGEEGAKESEEKEKSGRRFSSRIDLPEKLYKIDVIKAEMKNGVLKVTVPKMKEEERNNVINVKVD			2 mer and 3 mer
